Results: patent US20050143559
Read-outs that look alike come from different tables or passages of the source.

B1: recombinant tryparedoxin II containing a His tag (expressed from pET/TXN II H6 in E. coli BL21(DE3)) (peptide)
chain: TQSLPSSFLASLEHHHHHH

Legend:
[1] = system: tryparedoxin peroxidase isolated from Crithidia fasciculata
[2] = target: tryparedoxin peroxidase isolated from Crithidia fasciculata; remark: listed apart in the source

Molecule | specific activity (coupled NADPH consumption assay) [1] | specific activity (coupled NADPH consumption assay) [2] [U/mg]
authentic tryparedoxin I isolated from Crithidia fasciculata | 2.3 U/mg for the authentic enzyme | 
B1 |  | 7.7
